PMC8219104 (2021)

Experiments:
[1] = biological target: T1, SARS-CoV-2 spike receptor-binding domain (RBD), amino acids 333 to 529, bacteria-expressed and refolded (SARS-CoV-2, UniProt P0DTC2 333-529); assay: SPR
[2] = biological target: T1, SARS-CoV-2 spike receptor-binding …; assay: SPR; remark: listed apart in the source

B1: Sybody Sb14 (VHH)
VHH: QVQLVESGGGLVQAGGSLRLSCAASGFPVQAREMEWYRQAPGKEREWVAAIKSTGTYTAYAYSVKGRFTISRDNAKNTVYLQMNSLKPEDTAVYYCYVYVGSSYIGQGTQVTVSA
In the case of B1, the koff [1] is reported as 0.007 s⁻¹ and the Kd [2] is reported as 13.8 nM.

B2: Sybody Sb16 (VHH)
VHH: QVQLVESGGGLVQAGGSLRLSCAASGFPVAYKTMWWYRQAPGKEREWVAAIESYGIKWTRYADSVKGRFTISRDNAKNTVYLQMNSLKPEDTAVYYCIVWVGAQYHGQGTQVTVSA
With B2 the koff [1] was 0.02 s⁻¹ and the Kd [2] was 40.6 nM.

B3: Sybody Sb15 (VHH)
VHH: QVQLVESGGGLVQAGGSLRLSCAASGFPVKNFEMEWYRKAPGKEREWVAAIQSGGVETYYADSVKGRFTISRDNAKNTVYLQMNSLKPEDTAVYYCFVYVGRSYIGQGTQVTVS
Work on B3 yielded a koff [1] of 0.011 s⁻¹.

B4: Sybody Sb68 (VHH)
VHH: QVQLVESGGGSVQAGGSLRLSCAASGSISSITYLGWFRQAPGKEREGVAALITVNGHTYYADSVKGRFTVSLDNAKNTVYLQMNSLKPEDTALYYCAAAAWGYAWPLHQDDYWYWGQGTQVTVSA
Binder B4 has a koff [1] of 0.023 s⁻¹.
